Target: the molecule itself
Assay: cryo-EM structure; single-particle cryo-EM of the purified channel in 0.02% GDN, 150 mM KCl, 2 mM TCEP, 1 mM EDTA, 50 mM TRIS pH 7.5; about 0.7 mg/mL; refinement with C4 symmetry

B1: Shaker-IR-I384R (natural protein, UniProt P08510 1-655, looked up)
chain: MAAVALREQQLQRNSLDGYGSLPKLSSQDEEGGAGHGFGGGPQHFEPIPHDHDFCERVVINVSGLRFETQLRTLNQFPDTLLGDPARRLRYFDPLRNEYFFDRSRPSFDAILYYYQSGGRLRRPVNVPLDVFSEEIKFYELGDQAINKFREDEGFIKEEERPLPDNEKQRKVWLLFEYPESSQAARVVAIISVFVILLSIVIFCLETLPEFKHYKVFNTTTNGTKIEEDEVPDITDPFFLIETLCIIWFTFELTVRFLACPNKLNFCRDVMNVIDIIAIIPYFITLATVVAEEEDTLNLPKAPVSPQDKSSNQAMSLAILRVIRLVRVFRIFKLSRHSKGLQRLGRTLKASMRELGLLIFFLFIGVVLFSSAVYFAEAGSENSFFKSIPDAFWWAVVTMTTVGYGDMTPVGVWGKIVGSLCAIAGVLTIALPVPVIVSNFNYFYHRETDQEEMQSQNFNHVTSCPYLPGTLGQHMKKSSLSESSSDMMDLDDGVESTPGLTETHPGRSAVAPFLGAQQQQQQPVASSLSMSIDKQLQHPLQQLTQTQLYQQQQQQQQQQQNGFKQQQQQTQQQLQQQQSHTINASAAAATSGSGSSGLTMRHNNALAVSIETDV
notes: Subcloned into a modified pEG BacMam vector with a C-terminal HRV 3C protease site, eGFP and 8x-His; the channel was released from the beads by HRV 3C protease; PDB 7SIP (Shaker-IR without I384R) was the template for model building; also called uncoupled channel; uncoupled I384R mutant; not shown: eGFP, C-terminal, cleaved; 8x-His, C-terminal, cleaved
stoichiometry N: 4

Source: paper PMC12083643, “Closed State Structure of the Pore Revealed by Uncoupled Shaker K+ Channel” (Research Square, 2025)
